Source: the RNAGym collection of RNA variant scans (doi:10.7554/elife.90254)

B1: OR4K15 (parent)
chain: GUUAACGGUCAUAGGCCAUGGAAACUAGGAGCACCAUUUCGCUGCCAGUGAAGAAAUGAACAAAGAAAAUCUGGGCCAGGCAGGCAUCAAAAGAAAUAGUCUUGCGCUCAACCAGAAAGUCUGUAAUCAUUUUAAGGGUA

Variants of: B1
Test: self-cleavage, relative activity (ratio to wild type); higher = more cleavage; in vitro, sequencing; the parent is a self-cleaving ribozyme

| Variant | self-cleavage |
| --- | --- |
| U70G U127C | 0.57 |
| U9C A27G | 1.55 |
| A11G G74C | 0.38 |
| A94G A129G | 1.29 |
| A5G G15A | 1.02 |
| G123U G136A | 2.35 |
| A36G A96C | 0.95 |
| A24U | 1.41 |
| A51G A126C | 0.91 |
| A62C A78U | 0.46 |
| A30U U122C | 1.35 |
| G115U A126U | 0.25 |
| A13G A116G | 0.55 |
| G53A U102A | 0.68 |
| G104A U132C | 0.04 |
| U124A U130C | 0.1 |
| A92G U103G | 0.03 |
| U49C G80A | 0.21 |
| A56G C88U | 1.72 |
| A59G A90G | 0.78 |
| U26C A94G | 0.95 |
| A68G G75A | 0.1 |
| U120A U130C | 1.78 |
| A82G A90G | 0.31 |

| Variant | self-cleavage |
| --- | --- |
| A5G A68U | 0.85 |
| A36U A117G | 1.52 |
| U9A A51G | 1.66 |
| U57G C81U | 0.29 |
| A23G A56G | 1.18 |
| A67G A68C | 0.53 |
| A82G A111G | 0.04 |
| A68U G137A | 1.39 |
| U49A U127G | 1.97 |
| A4G U49A | 0.8 |
| U12C U120C | 0.75 |
| C105G A135G | 0.03 |
| A60G A78G | 0.23 |
| C101U | 0.41 |
| A67U A69U | 1.69 |
| A27U G79U | 0.09 |
| U19A C35A | 0.65 |
| A59G A118C | 0.9 |
| A33G A62G | 1.11 |
| G83A A135G | 1.3 |
| A129G A140G | 1.24 |
| U2A C61U | 0.71 |
| A63G A96G | 1.4 |
| G7A A67G | 1.61 |

| Variant | self-cleavage |
| --- | --- |
| A62U U103C | 1.23 |
| U9G A69G | 1 |
| U70A A89G | 1.13 |
| G44A A89U | 1.59 |
| U2C U131G | 1.08 |
| U39C C71U | 0.29 |
| C42A A98G | 0.37 |
| A33U C101A | 0.35 |
| U49C A96G | 1 |
| U70C A89G | 0.58 |
| A47G U120C | 0.48 |
| U43A A111C | 0.03 |
| A18U A94G | 1.06 |
| A62G U72A | 0.18 |
| U57C A125G | 0.29 |
| C6G U130C | 0.63 |
| G7A G75U | 0.13 |
| C34G A67G | 1.12 |
| A33G U37C | 0.74 |
| A33G A62U | 0.76 |
| A22C U102C | 2.42 |
| U130C U132A | 1.4 |
| C128U U131C | 1.17 |
| A52G A110U | 1.17 |

| Variant | self-cleavage |
| --- | --- |
| A5G A114G | 0.41 |
| C6A A125G | 0.29 |
| C16A G83U | 0.41 |
| A33G C77U | 1.59 |
| U72C G136C | 0.31 |
| U9C A13G | 0.81 |
| A52C A126G | 0.42 |
| U97A A140G | 1.98 |
| U49C U72C | 0.3 |
| A86G U124C | 0.3 |
| A5U U87A | 1.2 |
| A125U | 1.81 |
| A117G U120A | 2.78 |
| U19C U57A | 1.21 |
| A60G A62U | 1.51 |
| A5G U108A | 0.05 |
| A33G A59G | 0.98 |
| A47G A92C | 0.42 |
| A78C U102A | 0.02 |
| U49G U130A | 0.36 |
| U49G A62U | 0.74 |
| U9C A110U | 1.32 |
| A62U U139A | 1.78 |
| U9C U12C | 1.27 |

| Variant | self-cleavage |
| --- | --- |
| U9G A91C | 0.6 |
| A95U A134G | 1.48 |
| G14A A111G | 0.01 |
| A5U A62C | 1.64 |
| A60U U108C | 0.01 |
| G83A A94G | 1.79 |
| A111G A126G | 0.01 |
| A78U A89G | 0.27 |
| U39C G58A | 0.67 |
| U100C G115U | 0.71 |
| A30U U130C | 0.34 |
| U2A A22U | 0.88 |
| G53U A60U | 1.71 |
| A4G A114G | 0.76 |
| A52G C71U | 0.44 |
| A47G A92U | 1.18 |
| A90U U127C | 1.37 |
| A27G C71A | 0.66 |
| A4U A13G | 1.23 |
| U43A A114G | 0.86 |
| A51G A82U | 0.25 |
| U103C U139A | 1.06 |
| A47U C77A | 0.69 |
| A11G A92G | 1.1 |

| Variant | self-cleavage |
| --- | --- |
| A54U A60G | 0.97 |
| A66G U102C | 1.84 |
| U26C A33G | 0.84 |
| A18G A95G | 1.38 |
| C81U U127C | 0.22 |
| A22G A24C | 0.56 |
| A36G G75A | 0.09 |
| A89U A90G | 1.48 |
| A27G A54G | 1.37 |
| A13U A22U | 1.45 |
| U70G U103C | 1.08 |
| G28A A114U | 0.18 |
| A11G A64G | 1.3 |
| U12C A82G | 0.76 |
| U43C A68G | 1.21 |
| A66U U139A | 2.31 |
| U100C C109U | 0.89 |
| A66G A135G | 0.47 |
| U49C A98G | 0.48 |
| U57A U70A | 0.62 |
| A36G G136A | 1.79 |
| U37C A96C | 0.89 |
| A4G A23G | 1.09 |
| G75A U97C | 0.15 |

| Variant | self-cleavage |
| --- | --- |
| C34U U70C | 0.23 |
| A51C U108C | 0.01 |
| C34U A129G | 0.51 |
| A13U G73A | 0.16 |
| A86G A91U | 0.73 |
| A59U A116U | 0.2 |
| A69G C105G | 0.02 |
| G84A U131C | 2.37 |
| U19C C32U | 1.32 |
| A78C A125G | 0.04 |
| U37C A98U | 1.84 |
| U38C U108A | 0.03 |
| U39A A135G | 1.75 |
| A62C U130C | 0.71 |
| A51C A94G | 2.16 |
| A18G A63G | 1.17 |
| U37C G136A | 2.23 |
| U38C U133C | 0.93 |
| A22G A129C | 1.08 |
| U100C A118G | 1.11 |
| G84A A126G | 0.87 |
| C76U A82G | 0.09 |
| C40U | 1.57 |
